Measured values: US20080182978A1, “ANTI-NGF ANTIBODIES AND METHODS USING SAME” (RINAT NEUROSCIENCE CORP, priority 2002, published 2008)

Molecular target: human NGF (Homo sapiens, UniProt P01138)
Assay: BIAcore screening assay of Fab library clones (koff)
Type: binding
Details: for binding affinity compared with the 8L2-6D5 template: single CDR3 mutation
Experimental: Small scale expression in 96 wells plates was optimized for screening Fab libraries. Starting from E. coli transformed with a Fab library, colonies were picked to inoculate both a master plate (agar LB+Ampicillin (50 μg/ml)+2% Glucose) and a working plate (2 ml/well, 96 well/plate containing 1.5 mL of LB+Ampicillin (50 μg/ml)+2% Glucose). Both plates were grown at 30° C. for 8-12 hours. The master plate was stored at 4° C. and the cells from the working plate were pelleted at 5000 rpm and resuspended with 1 mL of LB+Ampicillin (50 μg/ml)+1 mM IPTG to induce expression of Fabs. Cells were harvested by centrifugation after 5 h expression time at 30° C., then resuspended in 500 μL of buffer HBS-EP ([…] buffer pH 7.4, 150 mM NaCl, 0.005% P20, 3 mM EDTA). Lysis of HBS-EP resuspended cells was attained by one cycle of freezing (−80° C.) then thawing at 37° C. Cell lysates were centrifuged at 5000 rpm for 30 min to separate cell debris from supernatants containing Fabs. The supernatants were then injected into the BIAcore plasmon resonance apparatus to obtain affinity information for each Fab. Clones expressing Fabs were rescued from the master plate to sequence the DNA and for large scale Fab production and detailed characterization as described below.
Affinities of anti-NGF Fabs and monoclonal antibodies were determined using the BIAcore300™ surface plasmon resonance (SPR) system (BIAcore, INC, Piscaway N.J.). CM5 chips were activated with N-ethyl-N′-(3-dimethylaminopropyl)-carbodimide hydrochloride (EDC) and N-hydroxysuccinimide (NHS) according to the supplier's instructions. Human NGF was diluted into 10 mM sodium acetate pH 4.0 and injected over the activated chip at a concentration of 0.005 mg/mL. Using variable flow time across the individual chip channels, two ranges of antigen density were achieved: 100-200 response units (RU) for detailed kinetic studies and 500-600 RU for screening assays. The chip was blocked with ethanolamine. […] HBS-EP buffer (0.01M HEPES, pH 7.4, 0.15 NaCl, 3 mM EDTA, 0.005% Surfactant […]) was used as running buffer for all the BIAcore assays.
A screening BIAcore assay was optimized to determine the affinity of Fab clones from libraries. Supernatants of small culture lysates were injected at 50 μl/min for 2 min. Dissociation times of 10 to 15 minutes were used for determination of a single exponential dissociation rate (koff) using BIAevaluation software. […] Clones showing improved (slower) koff values were expressed at large scale and full kinetic parameters, kon and koff, were determined on purified protein. The assay was capable of detecting differences in affinity that were approximately 2-fold or larger.
For affinity screening experiments, each library was further paired with the corresponding CDR-grafted light or heavy chain (for example, the H1/H2 library was paired with CDR-grafted light chain), the antibody was expressed, and affinity to human NGF of the individual clones was screened using the BIACORE surface plasmon resonance (SPR) system (BIAcore, Inc. Piscataway, N.J.) according to the manufacturer's instructions and as described above. koff, kon and KD were determined. Antibody clones were ranked based on koff rates, since generally most variation in affinity is seen in koff rates, and further because koff rates are independent of antibody concentration.
20-80 clones from each small library were screened using BIAcore analysis as described herein. Samples were simultaneously analyzed by BIAcore for binding affinity to NGF in one channel of the BIAcore chip and for presence of Fab by binding to a penta-histag antibody in another channel of the sensor chip, to detect the his tag at the C terminus of the heavy chain. Clones that expressed protein were classified as having the same affinity, worse affinity, better affinity or no binding, using koff to classify: The results of this analysis are shown in Table 5.

[1] = Table 3: heavy chain library clones paired with 6D5 light chain
[2] = Table 3: light chain library clones paired with 8L2 heavy chain
[3] = Table 6: single CDR H3 or L3 mutation in 8L2-6D5 template

Sequence of human NGF (P01138 122-241): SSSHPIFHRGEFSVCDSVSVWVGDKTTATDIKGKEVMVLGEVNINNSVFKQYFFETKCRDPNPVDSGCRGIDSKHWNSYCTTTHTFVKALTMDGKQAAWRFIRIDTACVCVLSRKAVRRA

koff [2] | koff [3] [s⁻¹] | binding affinity compared with the 8L2-6D5 template | Molecule | further results
**1e3 s-1 | 0.001 | – | 8L2-6D5: CDR-grafted antibody with V71K heavy chain framework substitution; template for affinity maturation (antibody, V domains shown) VH: QVQLQESGPGLVKPSETLSLTCTVSGFSLIGYDINWIRQPPGKGLEWIGMIWGDGTTDYNSALKSRVTISKDTSKNQFSLKLSSVTAADTAVYYCARGGYYYGTSYYFDYWGQGTLVTVS VL: DIQMTQSPSSLSASVGDRVTITCRASQDISNHLNWYQQKPGKAPKLLIYYISRFHSGVPSRFSGSGSGTDFTFTISSLQPEDIATYYCQQSKTLPYTFGQGTKLEIKRT | koff [1]: 0.001 s⁻¹; koff (Table 8: CDR L3 H3 combination mutations, 8L2-6D5 template): 0.001 s⁻¹; koff (template used to create the library): 1×10^−3 s^−
0.00056 s⁻¹ | – | – | L97: light chain library clone, CDRL1 SEQ ID NO:22, CDRL2 SEQ ID NO:23 (antibody, V domains shown) VH: QVQLQESGPGLVKPSETLSLTCTVSGFSLIGYDINWIRQPPGKGLEWIGMIWGDGTTDYNSALKSRVTISKDTSKNQFSLKLSSVTAADTAVYYCARGGYYYGTSYYFDYWGQGTLVTVS VL: DIQMTQSPSSLSASVGDRVTITCRASQSISNQLNWYQQKPGKAPKLLIYYVSRFHSGVPSRFSGSGSGTDFTFTISSLQPEDIATYYCQQSKTLPYTFGQGTKLEIKRT | –
0.00074 s⁻¹ | – | – | L81: light chain library clone, CDRL1 SEQ ID NO:24, CDRL2 SEQ ID NO:25 (antibody, V domains shown) VH: QVQLQESGPGLVKPSETLSLTCTVSGFSLIGYDINWIRQPPGKGLEWIGMIWGDGTTDYNSALKSRVTISKDTSKNQFSLKLSSVTAADTAVYYCARGGYYYGTSYYFDYWGQGTLVTVS VL: DIQMTQSPSSLSASVGDRVTITCRAFQAISNQLNWYQQKPGKAPKLLIYYISRFHTGVPSRFSGSGSGTDFTFTISSLQPEDIATYYCQQSKTLPYTFGQGTKLEIKRT | –
– | – | – | H109: heavy chain library clone, CDRH1 SEQ ID NO:28, CDRH2 SEQ ID NO:29 (antibody, V domains shown) VH: QVQLQESGPGLVKPSETLSLTCTVSGFSLIGYDSNWIRQPPGKGLEWIGIIWGDGTTDYNSALKSRVTISKDTSKNQFSLKLSSVTAADTAVYYCARGGYYYGTSYYFDYWGQGTLVTVS VL: DIQMTQSPSSLSASVGDRVTITCRASQDISNHLNWYQQKPGKAPKLLIYYISRFHSGVPSRFSGSGSGTDFTFTISSLQPEDIATYYCQQSKTLPYTFGQGTKLEIKRT | koff [1]: 0.00016 s⁻¹
– | 0.00025 | significantly increased binding affinity | S91E: 8L2-6D5 template with CDR L3 mutation S91E (SEQ ID NO:50) (antibody, V domains shown) VH: QVQLQESGPGLVKPSETLSLTCTVSGFSLIGYDINWIRQPPGKGLEWIGMIWGDGTTDYNSALKSRVTISKDTSKNQFSLKLSSVTAADTAVYYCARGGYYYGTSYYFDYWGQGTLVTVS VL: DIQMTQSPSSLSASVGDRVTITCRASQDISNHLNWYQQKPGKAPKLLIYYISRFHSGVPSRFSGSGSGTDFTFTISSLQPEDIATYYCQQEKTLPYTFGQGTKLEIKRT | –
– | 0.00064 | significantly increased binding affinity | S105T: 8L2-6D5 template with CDR H3 mutation S105T (SEQ ID NO:48) (antibody, V domains shown) VH: QVQLQESGPGLVKPSETLSLTCTVSGFSLIGYDINWIRQPPGKGLEWIGMIWGDGTTDYNSALKSRVTISKDTSKNQFSLKLSSVTAADTAVYYCARGGYYYGTTYYFDYWGQGTLVTVS VL: DIQMTQSPSSLSASVGDRVTITCRASQDISNHLNWYQQKPGKAPKLLIYYISRFHSGVPSRFSGSGSGTDFTFTISSLQPEDIATYYCQQSKTLPYTFGQGTKLEIKRT | –
– | 0.00051 | significantly increased binding affinity | S105A: 8L2-6D5 template with CDR H3 mutation S105A (SEQ ID NO:47) (antibody, V domains shown) VH: QVQLQESGPGLVKPSETLSLTCTVSGFSLIGYDINWIRQPPGKGLEWIGMIWGDGTTDYNSALKSRVTISKDTSKNQFSLKLSSVTAADTAVYYCARGGYYYGTAYYFDYWGQGTLVTVS VL: DIQMTQSPSSLSASVGDRVTITCRASQDISNHLNWYQQKPGKAPKLLIYYISRFHSGVPSRFSGSGSGTDFTFTISSLQPEDIATYYCQQSKTLPYTFGQGTKLEIKRT | –
– | 0.00056 | significantly increased binding affinity | Y101W: 8L2-6D5 template with CDR H3 mutation Y101W (SEQ ID NO:46) (antibody, V domains shown) VH: QVQLQESGPGLVKPSETLSLTCTVSGFSLIGYDINWIRQPPGKGLEWIGMIWGDGTTDYNSALKSRVTISKDTSKNQFSLKLSSVTAADTAVYYCARGGYWYGTSYYFDYWGQGTLVTVS VL: DIQMTQSPSSLSASVGDRVTITCRASQDISNHLNWYQQKPGKAPKLLIYYISRFHSGVPSRFSGSGSGTDFTFTISSLQPEDIATYYCQQSKTLPYTFGQGTKLEIKRT | –
0.00046 s⁻¹ | – | – | L208: light chain library clone, CDRL1 SEQ ID NO:20, CDRL2 SEQ ID NO:21 (antibody, V domains shown) VH: QVQLQESGPGLVKPSETLSLTCTVSGFSLIGYDINWIRQPPGKGLEWIGMIWGDGTTDYNSALKSRVTISKDTSKNQFSLKLSSVTAADTAVYYCARGGYYYGTSYYFDYWGQGTLVTVS VL: DIQMTQSPSSLSASVGDRVTITCRASQYISNHLNWYQQKPGKAPKLLIYYTSRFHSGVPSRFSGSGSGTDFTFTISSLQPEDIATYYCQQSKTLPYTFGQGTKLEIKRT | –
0.00045 s⁻¹ | – | – | L129: light chain library clone, CDRL1 SEQ ID NO:18, CDRL2 SEQ ID NO:19 (antibody, V domains shown) VH: QVQLQESGPGLVKPSETLSLTCTVSGFSLIGYDINWIRQPPGKGLEWIGMIWGDGTTDYNSALKSRVTISKDTSKNQFSLKLSSVTAADTAVYYCARGGYYYGTSYYFDYWGQGTLVTVS VL: DIQMTQSPSSLSASVGDRVTITCRASQSISNNLNWYQQKPGKAPKLLIYYTSRFHSGVPSRFSGSGSGTDFTFTISSLQPEDIATYYCQQSKTLPYTFGQGTKLEIKRT | –
– | – | – | H19: heavy chain library clone, CDRH1 SEQ ID NO:30, CDRH2 SEQ ID NO:31 (antibody, V domains shown) VH: QVQLQESGPGLVKPSETLSLTCTVSGFSLIGYDLNWIRQPPGKGLEWIGIIWGDGTTDYNSAVKSRVTISKDTSKNQFSLKLSSVTAADTAVYYCARGGYYYGTSYYFDYWGQGTLVTVS VL: DIQMTQSPSSLSASVGDRVTITCRASQDISNHLNWYQQKPGKAPKLLIYYISRFHSGVPSRFSGSGSGTDFTFTISSLQPEDIATYYCQQSKTLPYTFGQGTKLEIKRT | koff [1]: 0.00024 s⁻¹
– | 0.00016 | significantly increased binding affinity | G103A: 8L2-6D5 template with CDR H3 mutation G103A (SEQ ID NO:49) (antibody, V domains shown) VH: QVQLQESGPGLVKPSETLSLTCTVSGFSLIGYDINWIRQPPGKGLEWIGMIWGDGTTDYNSALKSRVTISKDTSKNQFSLKLSSVTAADTAVYYCARGGYYYATSYYFDYWGQGTLVTVS VL: DIQMTQSPSSLSASVGDRVTITCRASQDISNHLNWYQQKPGKAPKLLIYYISRFHSGVPSRFSGSGSGTDFTFTISSLQPEDIATYYCQQSKTLPYTFGQGTKLEIKRT | –
